The text below walks through data of patent US20250382374A1 (VIRIDIAN THERAPEUTICS, published 2025).

For assay [1], the target named is T1, IGF-1R on A549 human lung adenocarcinoma cells or primary human ocular choroid fibroblasts (HOCF) (human, UniProt P08069 31-1367).
T1 construct: whole, on cells; Endogenous receptor on human cell lines; also called IGF-1R on A549 cells; IGF-1R on HOCF cells
The experiment in a line: cell based binding assay on A549 cells; YTE only heavy chain (SEQ ID NO: 94).

The target of assay [2] is T1, IGF-1R on A549 human lung …. Nature of the assay: cell-based or functional assay.
For assay [3] the target is unchanged. The experiment in a line: cell based binding assay on A549 cells; C22S plus YTE heavy chain (SEQ ID NO: 95).
Assay [4] shares this target. Nature of the assay: flow cytometry on HOCF cells, binding dose response curve (MFI). The procedure: (§1) Unbound antibody was removed by washing, and the cells were incubated with an Alexa Fluor 488™—goat anti-human antibody (fluorescently labeled antibody) and a cell impermeable dye to gate live cells. The median fluorescence intensity (MFI) of viable cells was measured by flow cytometry and the data were analyzed using FlowJo™ software. Dose curves were fitted using a non-linear regression model; log (agonist) vs response-variable slope (four parameters).
On the technique in general: A flow cytometer gives signals particle by particle.

For assay [5] the target is unchanged. The experiment in a line: flow cytometry on A549 cells, binding dose response curve (MFI). Here is the method: as §1
The target of assay [6] is IGF-1R (as used in the surface plasmon resonance assay of Example 7) (UniProt P08069 31-932, limits assumed). Nature of the assay: SPR, pH 7.4. (Surface plasmon resonance follows binding to a sensor surface in real time, without labels.)

Where a chain is given by its changes, count along the chain named. Numbers in names are those of the source.

T1 sequence (P08069 31-1367): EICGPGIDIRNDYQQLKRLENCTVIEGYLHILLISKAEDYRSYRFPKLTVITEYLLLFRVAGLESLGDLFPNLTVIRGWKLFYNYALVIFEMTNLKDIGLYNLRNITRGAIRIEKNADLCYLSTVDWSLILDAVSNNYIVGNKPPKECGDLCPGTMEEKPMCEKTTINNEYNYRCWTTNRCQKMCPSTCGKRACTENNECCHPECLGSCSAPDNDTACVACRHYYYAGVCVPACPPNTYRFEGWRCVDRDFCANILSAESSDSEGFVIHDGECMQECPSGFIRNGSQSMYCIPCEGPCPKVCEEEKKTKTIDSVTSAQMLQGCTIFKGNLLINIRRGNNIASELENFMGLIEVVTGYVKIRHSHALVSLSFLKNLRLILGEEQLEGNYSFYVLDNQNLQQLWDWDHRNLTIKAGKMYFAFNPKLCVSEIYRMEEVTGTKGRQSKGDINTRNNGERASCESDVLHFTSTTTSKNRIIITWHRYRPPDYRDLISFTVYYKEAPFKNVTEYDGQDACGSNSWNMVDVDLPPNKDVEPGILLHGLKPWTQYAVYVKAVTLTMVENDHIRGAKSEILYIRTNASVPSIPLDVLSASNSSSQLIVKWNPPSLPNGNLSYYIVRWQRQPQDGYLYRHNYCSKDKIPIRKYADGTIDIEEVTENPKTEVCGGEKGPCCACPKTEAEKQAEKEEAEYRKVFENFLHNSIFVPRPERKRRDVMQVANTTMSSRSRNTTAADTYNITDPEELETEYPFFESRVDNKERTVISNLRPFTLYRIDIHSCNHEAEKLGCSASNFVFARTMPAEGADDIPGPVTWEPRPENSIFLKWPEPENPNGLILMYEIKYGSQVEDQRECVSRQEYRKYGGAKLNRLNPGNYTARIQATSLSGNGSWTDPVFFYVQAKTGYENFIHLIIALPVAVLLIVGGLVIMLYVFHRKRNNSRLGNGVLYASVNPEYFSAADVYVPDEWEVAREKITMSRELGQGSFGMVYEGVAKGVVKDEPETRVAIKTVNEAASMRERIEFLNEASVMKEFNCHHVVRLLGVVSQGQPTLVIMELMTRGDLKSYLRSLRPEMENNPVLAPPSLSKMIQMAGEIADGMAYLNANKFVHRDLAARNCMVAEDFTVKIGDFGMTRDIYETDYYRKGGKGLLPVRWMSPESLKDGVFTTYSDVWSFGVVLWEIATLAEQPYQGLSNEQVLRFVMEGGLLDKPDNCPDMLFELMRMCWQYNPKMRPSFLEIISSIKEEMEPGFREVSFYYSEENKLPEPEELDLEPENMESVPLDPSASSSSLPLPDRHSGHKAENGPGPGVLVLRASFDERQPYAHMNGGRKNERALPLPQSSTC
Sequence of IGF-1R (as used in the surface plasmon resonance assay of Example 7) (P08069 31-932 limits assumed): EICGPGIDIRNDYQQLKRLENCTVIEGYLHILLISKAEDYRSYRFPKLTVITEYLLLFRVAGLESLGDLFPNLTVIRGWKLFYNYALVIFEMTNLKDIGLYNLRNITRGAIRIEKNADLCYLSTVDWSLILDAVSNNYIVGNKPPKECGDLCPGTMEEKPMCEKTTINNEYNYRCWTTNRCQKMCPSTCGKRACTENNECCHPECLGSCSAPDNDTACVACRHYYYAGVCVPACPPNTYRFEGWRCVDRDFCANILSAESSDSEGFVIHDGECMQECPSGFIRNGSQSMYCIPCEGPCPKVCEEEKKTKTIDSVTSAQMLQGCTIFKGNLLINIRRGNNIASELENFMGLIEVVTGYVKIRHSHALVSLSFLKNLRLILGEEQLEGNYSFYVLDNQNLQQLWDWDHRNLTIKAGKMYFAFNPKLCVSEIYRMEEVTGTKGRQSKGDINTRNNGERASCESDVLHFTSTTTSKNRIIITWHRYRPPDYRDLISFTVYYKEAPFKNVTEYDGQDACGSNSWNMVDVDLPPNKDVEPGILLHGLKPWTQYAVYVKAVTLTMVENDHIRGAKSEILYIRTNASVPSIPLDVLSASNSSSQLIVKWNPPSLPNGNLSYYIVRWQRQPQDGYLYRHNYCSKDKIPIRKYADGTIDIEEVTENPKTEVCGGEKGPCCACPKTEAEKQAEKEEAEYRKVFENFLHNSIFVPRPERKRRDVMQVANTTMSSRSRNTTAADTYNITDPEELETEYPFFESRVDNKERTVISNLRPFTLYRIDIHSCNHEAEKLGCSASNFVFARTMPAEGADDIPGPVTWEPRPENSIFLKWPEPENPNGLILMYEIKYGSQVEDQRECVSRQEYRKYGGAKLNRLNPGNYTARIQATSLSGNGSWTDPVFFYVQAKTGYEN

B1: VRDN-1100 with the Fc YTE mutations in the heavy chain (antibody, human IgG1, kappa)
heavy: QVQLVQSGAEVVKPGASVKLSCKASGYTFTSYWMHWVKQRPGQGLEWIGEINPSNGRTNYNQKFQGKATLTVDKSSSTAYMQLSSLTSEDSAVYYFARGRPDYYGSSKWYFDVWGQGTTVTVSSASTKGPSVFPLAPSSKSTSGGTAALGCLVKDYFPEPVTVSWNSGALTSGVHTFPAVLQSSGLYSLSSVVTVPSSSLGTQTYICNVNHKPSNTKVDKKVEPKSCDKTHTCPPCPAPELLGGPSVFLFPPKPKDTLYITREPEVTCVVVDVSHEDPEVKFNWYVDGVEVHNAKTKPREEQYNSTYRVVSVLTVLHQDWLNGKEYKCKVSNKALPAPIEKTISKAKGQPREPQVYTLPPSRDELTKNQVSLTCLVKGFYPSDIAVEWESNGQPENNYKTTPPVLDSDGSFFLYSKLTVDKSRWQQGNVFSCSVMHEALHNHYTQKSLSLSPG
light: DVVMTQTPLSLPVSLGDPASISCRSSQSIVHSNVNTYLEWYLQKPGQSPRLLIYKVSNRFSGVPDRFSGSGAGTDFTLRISRVEAEDLGIYYCFQGSHVPPTFGGGTKLEIKRTVAAPSVFIFPPSDEQLKSGTASVVCLLNNFYPREAKVQWKVDNALQSGNSQESVTEQDSKDSTYSLSSTLTLSKADYEKHKVYACEVTHQGLSSPVTKSFNRGEC
notes: also called YTE Fc mutatant version of VRDN1100; YTE only mutant
As for B1, a half-maximal effect in assay [1] (EC50) was put at 0.3 nM. Besides, the “IC50 of inhibition of IGF-1R autophosphorylation” value in assay [2] was 0.4 nM.

B2: VRDN-1100 with C22S mutation and Fc YTE mutations in the heavy chain (antibody, human IgG1, kappa)
heavy: B1 heavy with C22S
light: B1 light
notes: also called C22S and Fc YTE mutant; C22S plus YTE mutations
As for B2, in assay [3], the EC50 was 0.36 nM. For the same molecule, the “IC50 of inhibition of IGF-1R autophosphorylation” value in assay [2] amounted to 0.37 nM.

B3: VRDN-1100 (antibody, V domains shown)
VH: QVQLVQSGAEVVKPGASVKLSCKASGYTFTSYWMHWVKQRPGQGLEWIGEINPSNGRTNYNQKFQGKATLTVDKSSSTAYMQLSSLTSEDSAVYYFARGRPDYYGSSKWYFDVWGQGTTVTVSS
VL: DVVMTQTPLSLPVSLGDPASISCRSSQSIVHSNVNTYLEWYLQKPGQSPRLLIYKVSNRFSGVPDRFSGSGAGTDFTLRISRVEAEDLGIYYCFQGSHVPPTFGGGTKLEIKR
notes: Humanized monoclonal antibody to IGF-1R; also called VRDN-01100
On to B3, for which the EC50 in assay [4] is 0.4 nM; in assay [5], 0.1 nM. Besides, in assay [2], the “IC50 of inhibition of IGF-1 stimulated receptor phosphorylation on A549 cells (pIGF-1R ELISA)” value stood at 90 pM. Further, in assay [2], the “IC50 of inhibition of IGF-1 stimulated receptor phosphorylation on HOCF cells (pIGF-1R ELISA)” value stood at 90 pM.

B4: mutant of VRDN-1100 with a C22S mutation in the heavy chain (antibody, V domains shown)
VH: B3 VH with C22S
VL: DVVMTQTPLSLPVSLGDPASISCRSSQSIVHSNVNTYLEWYLQKPGQSPRLLIYKVSNRFSGVPDRFSGSGAGTDFTLRISRVEAEDLGIYYCFQGSHVPPTFGGGTKLEIK
In assay [6], B4 came in with a Kd of 0.21 nM, an off-rate (koff) of 2.18e-05 s⁻¹ and a kon of 104000 M⁻¹ s⁻¹.

One may read the EC50 as the concentration at which the effect is half-maximal. By Kd is commonly meant the concentration at which binding is half-saturated. A high value points to a looser complex. The koff is the first-order rate constant of dissociation. What is called kon is the rate constant with which the complex forms. Higher therefore signals faster complex formation.
